Key:
[1] = cited from earlier work
[2] = test system: previously treated HER2-positive metastatic breast cancer; settings: in combination with trastuzumab; 11 patients enrolled; cited from earlier work
[3] = Phase II single-agent Study TOC2689g (ovarian cancer), serum pharmacokinetics; type: in vivo, human; settings: for CL, systemic clearance (mean ± SD) / Vc, volume of central compartment (mean ± SD) / Vss, steady-state volume of distribution (mean ± SD) / t1/2 initial, initial distribution half-life (mean ± SD) / t1/2 terminal, terminal half-life (mean ± SD): intravenous infusion, 2-compartment population PK model
Source text: (§1) Mean serum Cmin and Cmax for the first two cycles of treatment in ovarian and metastatic breast cancer (MBC) patients are presented in Table 3.
(§2) PK parameters were estimated using a two-compartment model (see Table 4).

[4] = Phase II single-agent studies TOC2689g and BO16934 taken together, serum pharmacokinetics; type: in vivo, human
Source text: (§3) Population PK modeling of data from Phase Ia and Phase II studies support the continued use of fixed, non-weight-based dosing in female patients.
as §1, §2

[5] = Phase II study with gemcitabine in platinum-resistant ovarian cancer (TOC3258g), PK; type: in vivo, human
[6] = Preliminary population PK analysis of Studies TOC2297g, TOC2689g and B016934; type: in vivo, human; settings: 153 patients, 1458 concentration-timepoints
[7] = Previous pertuzumab studies, PK summary (two-compartment model); type: in vivo, human
Source text: as §3

[8] = Clinical trials as of November 2006, torsades de pointes; type: in vivo, human; settings: pertuzumab-treated patients
[9] = test system: incurable, locally advanced, recurrent or metastatic solid tumors; settings: cited from earlier work
[10] = test system: non-small cell lung cancer (NSCLC) and breast cancer tumors (low and high HER2 expression levels); test: Nonclinical dose-response xenograft studies; type: in vivo; settings: nude mice, NSCLC and breast cancer xenografts
[11] = Phase II single-agent Study BO16934 (metastatic breast cancer), serum pharmacokinetics; type: in vivo, human; settings: for CL, systemic clearance (mean ± SD) / Vc, volume of central compartment (mean ± SD) / Vss, steady-state volume of distribution (mean ± SD) / t1/2 initial, initial distribution half-life (mean ± SD) / t1/2 terminal, terminal half-life (mean ± SD): intravenous infusion, 2-compartment population PK model
Source text: as §1, §2

[12] = Phase Ib combination studies with capecitabine (BO17003) and docetaxel (BO17021), PK; type: in vivo, human
Source text: In both studies, the PK parameters for pertuzumab were similar to the PK parameters obtained in single-agent pertuzumab studies.

[13] = Multi-dose intravenous toxicity and toxicokinetic studies (Studies 00-377-1821 and 01-458-1821), cardiac endpoints; type: in vivo; settings: 7-week and 26-week intravenous studies, cynomolgus monkeys
Method: In a 7-week intravenous toxicity and toxicokinetic study in cynomolgus monkeys with a 4-week recovery period (Study 00-377-1821), telemetry was measured in two animals per sex in the control and high-dose (150 mg/kg/dose) groups to collect electrocardiographic endpoints. At two timepoints before the initiation of treatment, and on Days 1 and 28, telemetered animals had systolic, diastolic, and mean arterial blood pressure, heart rate, PR interval, QRS, QT, and Lead II ECG data recorded. Four 1-minute tracings were collected for each animal from 2 to 22 hours after dosing and interpreted by a board-certified veterinary cardiologist. In addition to the routine serum chemistry parameters evaluated, serum was also analyzed for creatinine kinase isozymes and Troponin T on Study Days 2/3 and 44/45 for all animals. […] Recordings were taken at two timepoints before the initiation of treatment and once during Weeks 4, 16, and 26 on anesthetized animals and were interpreted by a board-certified veterinary cardiologist. In addition to the routine serum chemistry parameters evaluated, serum was also analyzed for Troponin T on Day 1 predose and on Days 114, 184, and 239 (recovery) for all animals.

[14] = two-compartment model, Studies TOC2689g and BO16934
[15] = two-compartment model, typical patient
[16] = Phase I, intravenously every 3 weeks

Substance: pertuzumab: antibody comprising the light and heavy chain amino acid sequences in SEQ ID NOs. 7 and 8; HER dimerization inhibitor binding HER2
- antibodies to pertuzumab ([1]; Phase I patients): not detected
- linearity of pharmacokinetics ([1]; doses of 2.0-15 mg/kg): linear
- partial response (PR) [2]: Two out of the 11
- Cmax, mean peak serum concentration ([3]; 420 mg (n = 61), Cycle 1): 231.7 µg/mL
- Cmin, mean (±SD) trough serum concentration ([3]; 420 mg (n = 61), Cycle 1): 64.6 (±20.9) μg/mL
- Cmax, mean peak serum concentration ([3]; 420 mg (n = 61), Cycle 2): 237.6 µg/mL
- Cmin, mean (±SD) trough serum concentration ([3]; 420 mg (n = 61), Cycle 2): 66.5 (±38.0) μg/mL
- CL, systemic clearance (mean ± SD) ([3]; 420 mg (n = 61)): 0.244 ± 0.095 L/day
- Vc, volume of central compartment (mean ± SD) ([3]; 420 mg (n = 61)): 2.70 ± 0.39 L
- Vss, steady-state volume of distribution (mean ± SD) ([3]; 420 mg (n = 61)): 4.73 ± 0.78 L
- t1/2 initial, initial distribution half-life (mean ± SD) ([3]; 420 mg (n = 61)): 1.37 ± 0.12 days
- t1/2 terminal, terminal half-life (mean ± SD) ([3]; 420 mg (n = 61)): 16.2 ± 4.7 days
- Cmax, mean peak serum concentration ([3]; 1050 mg (n = 62), Cycle 1): 390.9 µg/mL
- Cmin, mean (±SD) trough serum concentration ([3]; 1050 mg (n = 62), Cycle 1): 90.1 (±68.1) μg/mL
- Cmax, mean peak serum concentration ([3]; 1050 mg (n = 62), Cycle 2): 357.2 µg/mL
- Cmin, mean (±SD) trough serum concentration ([3]; 1050 mg (n = 62), Cycle 2): 94.7 (±47.3) μg/mL
- CL, systemic clearance (mean ± SD) ([3]; 1050 mg (n = 62)): 0.285 ± 0.119 L/day
- Vc, volume of central compartment (mean ± SD) ([3]; 1050 mg (n = 62)): 3.11 ± 0.72 L
- Vss, steady-state volume of distribution (mean ± SD) ([3]; 1050 mg (n = 62)): 5.39 ± 1.31 L
- t1/2 initial, initial distribution half-life (mean ± SD) ([3]; 1050 mg (n = 62)): 1.34 ± 0.11 days
- t1/2 terminal, terminal half-life (mean ± SD) ([3]; 1050 mg (n = 62)): 15.8 ± 5.2 days
- steady-state serum Cmin ([4]; 840 mg loading dose, 420 mg maintenance dose every 3 weeks, by the second treatment cycle): approximately 60 mg/mL
- attainment of steady-state Cmin and Cmax ([4]; loading dose 840 mg followed by 420 mg every 3 weeks): by the second cycle
- mean systemic clearance, range over dose groups [4, 14]: 0.225 to 0.285 L/day
- mean volume of distribution of the central compartment, range over dose groups [4, 14]: 2.70 to 3.11 L
- serum concentrations of pertuzumab compared with single-agent Phase II studies ([5]; in combination with gemcitabine): similar
- effect on the PK of gemcitabine or its major metabolite, dFdU ([5]; preliminary PK analysis): does not alter the PK
- population variability of steady-state trough concentration and exposure with fixed-dosing, body surface area-based dosing, and weight-based dosing [6]: similar
- impact on the PK of co-administered chemotherapeutic agents ([7]; docetaxel and capecitabine in Phase Ib studies, gemcitabine in a Phase II study): no evidence that pertuzumab impacted the PK
- change in clearance with dose ([7]; doses from 2.0 to 15.0 mg/kg): no change in clearance
- systemic serum clearance [7, 15]: approximately 0.24 L/day
- terminal half-life [7, 15]: approximately 17 days
- association with an increase of TdP [8]: no association noted
- confirmed partial responses [9, 16]: Two
- tumor regression, patients evaluable for response [9, 16]: 3 of 20
- tolerability ([9]; given intravenously every 3 weeks): generally well tolerated
- steady-state trough concentrations at which >80% suppression of tumor growth was achieved [10]: 5 to 25 µg/mL
- suppression of tumor growth ([10]; steady-state trough concentrations 5-25 μg/mL): > 80%
- Cmax, mean peak serum concentration ([11]; 420 mg (n = 40), Cycle 1): 202.9 µg/mL
- Cmin, mean (±SD) trough serum concentration ([11]; 420 mg (n = 40), Cycle 1): 56.5 (±21.2) μg/mL
- Cmax, mean peak serum concentration ([11]; 420 mg (n = 40), Cycle 2): 181.2 µg/mL
- Cmin, mean (±SD) trough serum concentration ([11]; 420 mg (n = 40), Cycle 2): 62.6 (±21.1) μg/mL
- CL, systemic clearance (mean ± SD) ([11]; 420 mg (n = 40)): 0.255 ± 0.096 L/day
- Vc, volume of central compartment (mean ± SD) ([11]; 420 mg (n = 40)): 2.98 ± 0.67 L
- Vss, steady-state volume of distribution (mean ± SD) ([11]; 420 mg (n = 40)): 5.12 ± 0.98 L
- t1/2 initial, initial distribution half-life (mean ± SD) ([11]; 420 mg (n = 40)): 1.36 ± 0.13 days
- t1/2 terminal, terminal half-life (mean ± SD) ([11]; 420 mg (n = 40)): 16.3 ± 3.5 days
- Cmax, mean peak serum concentration ([11]; 1050 mg (n = 35), Cycle 1): 425.6 µg/mL
- Cmin, mean (±SD) trough serum concentration ([11]; 1050 mg (n = 35), Cycle 1): 75.9 (±34.5) μg/mL
- Cmax, mean peak serum concentration ([11]; 1050 mg (n = 35), Cycle 2): 542.9 µg/mL
- Cmin, mean (±SD) trough serum concentration ([11]; 1050 mg (n = 35), Cycle 2): 136.6 (±53.5) μg/mL
- CL, systemic clearance (mean ± SD) ([11]; 1050 mg (n = 35)): 0.225 ± 0.121 L/day
- Vc, volume of central compartment (mean ± SD) ([11]; 1050 mg (n = 35)): 2.95 ± 0.81 L
- Vss, steady-state volume of distribution (mean ± SD) ([11]; 1050 mg (n = 35)): 5.11 ± 1.12 L
- t1/2 initial, initial distribution half-life (mean ± SD) ([11]; 1050 mg (n = 35)): 1.39 ± 0.15 days
- t1/2 terminal, terminal half-life (mean ± SD) ([11]; 1050 mg (n = 35)): 20.5 ± 8.1 days
- effect on the PK of capecitabine and docetaxel ([12]; Phase Ib Studies BO17003 (capecitabine) and BO17021 (docetaxel)): does not alter the PK
- PK parameters for pertuzumab compared with single-agent pertuzumab studies ([12]; in combination with capecitabine or docetaxel): similar
- ECGs, blood pressures, and heart rates [13]: normal
- cardiac injury caused by treatment, by histopathology [13]: no evidence of cardiac injury
- serum chemistry parameters (Troponin T and creatine kinase isozymes) [13]: lack of increases

From patent US20150037332A1, “TREATMENT OF METASTIC BREAST CANCER” (GENENTECH, INC., priority 2008, published 2015)
